# Patent US20150203577A1 (Chugai, published 2015)
# Positions count from the first letter of the chain named. Names and notes keep the numbering of the source.
# T1: mouse FcγRIII extracellular domain, C-terminal His tag (mouse, UniProt P08508 31-215)
# T1 construct: also called mFcγRIII; mFcgRIII
# T1 chain: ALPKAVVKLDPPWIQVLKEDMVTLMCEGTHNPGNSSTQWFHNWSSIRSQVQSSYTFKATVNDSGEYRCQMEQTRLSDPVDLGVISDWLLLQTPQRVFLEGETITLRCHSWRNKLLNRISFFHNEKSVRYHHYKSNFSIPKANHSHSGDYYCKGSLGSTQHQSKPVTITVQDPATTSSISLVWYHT
# T2: mouse FcγRII extracellular domain, C-terminal His tag (mouse, UniProt P08101 30-210)
# T2 construct: also called mFcγRII; mFcgRII
# T2 sequence: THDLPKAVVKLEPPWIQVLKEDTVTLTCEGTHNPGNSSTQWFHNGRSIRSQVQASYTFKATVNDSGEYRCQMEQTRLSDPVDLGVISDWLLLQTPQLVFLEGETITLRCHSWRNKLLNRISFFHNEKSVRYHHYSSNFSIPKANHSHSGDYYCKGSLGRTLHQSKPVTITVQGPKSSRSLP
# B1: H237-MB545/MRAL-k0 (antibody, mouse IgG1, kappa)
# heavy: QVQLQESGPGLVKPSETLSLTCAVSGHSISHDHAWSWVRQPPGEGLEWIGFISYSGITNYNPSLQGRVTISRDNSKNTLYLQMNSLRAEDTAVYYCARSLARTTAMDYWGEGTLVTVSSAKTTPPSVYPLAPGSAAQTNSMVTLGCLVKGYFPEPVTVTWNSGSLSSGVHTFPAVLQSDLYTLSSSVTVPSSTWPSETVTCNVAHPASSTKVDKKIVPRDCGCKPCICEPNEVEMVFIFPPKPKDVLTITLTPKVTCVVVDISKDDPEVQFSWFVDDVEVHTAQTQPREEQFNLTFRSVSELPIMHQDWLNGKEFKCRVDSDAFPAPIEKTISKTKGRPKAPQVYTIPPPKEQMAKDKVSLTCMITDFFPEDITVEWQWNGQPAENYKNTQPIMDTDGSYFVYSKLNVQKSNWEAGNTFTCSVLHEGLHNHHTEKSLSHSPGK
# light: not shown
# notes: copies: 2 + 2
# B2: H237-MB630/MRAL-k0 (antibody, mouse IgG1, kappa)
# heavy: B1 heavy with M235L, L294S, D320N, D322A
# light: not shown
# notes: copies: 2 + 2
# B3: H237-MB754/MRAL-k0 (antibody, mouse IgG1, kappa)
# heavy: B1 heavy with M235L, L294S, D322A
# light: not shown
# notes: copies: 2 + 2
# B4: H237-MB547/MRAL-k0 (antibody, mouse IgG1, kappa)
# heavy: B1 heavy with D320N, K330R
# light: not shown
# notes: copies: 2 + 2
# B5: H237-MB749/MRAL-k0 (antibody, mouse IgG1, kappa)
# heavy: B1 heavy with M235L, Q291L, L294S, D320N, D322A
# light: not shown
# notes: copies: 2 + 2
# B6: H237-MB756/MRAL-k0 (antibody, mouse IgG1, kappa)
# heavy: B1 heavy with M235L, D320N, D322A, K330R
# light: not shown
# notes: copies: 2 + 2
# B7: H237-MB548/MRAL-k0 (antibody, mouse IgG1, kappa)
# heavy: B1 heavy with L294S, K330R
# light: not shown
# notes: copies: 2 + 2
# B8: H237-MB748/MRAL-k0 (antibody, mouse IgG1, kappa)
# heavy: B1 heavy with M235L, S263A, L294S, D320N, D322A
# light: not shown
# notes: copies: 2 + 2
# B9: H237-MB760/MRAL-k0 (antibody, mouse IgG1, kappa)
# heavy: B1 heavy with M235L, D322A, K330R
# light: not shown
# notes: copies: 2 + 2
# B10: H237-MB710/MRAL-k0 (antibody)
# heavy: B1 heavy with N231A, M235Q, L294S, D320N, D322A
# light: not shown
# notes: T0025 prints T230E/V231P/P232N/S238E/S239Q for MB710; EU numbering; copies: 2 + 2
# B11: H237-MB759/MRAL-k0 (antibody, mouse IgG1, kappa)
# heavy: B1 heavy with M235L, L294S, D322A, K330R
# light: not shown
# notes: copies: 2 + 2
# B12: H237-MB549/MRAL-k0 (antibody, mouse IgG1, kappa)
# heavy: B1 heavy with K330R
# light: not shown
# notes: copies: 2 + 2
# B13: H237-MB751/MRAL-k0 (antibody, mouse IgG1, kappa)
# heavy: B1 heavy with M235L, L294S, D320N, D322A, K330R
# light: not shown
# notes: copies: 2 + 2
# Biological target: T1, mouse FcγRIII extracellular domain, …
# Assay: SPR (Biacore T200), antibody captured on Protein L, mFcγR analyte
# Description: (§1) Each altered antibody was analyzed for its interaction with each Fcγ receptor prepared above using Biacore T100 (GE Healthcare Japan Corp.), Biacore T200 (GE Healthcare Japan Corp.), Biacore A100, or Biacore 4000. The running buffer used was HBS-EP+ (GE Healthcare Japan Corp.). The assay temperature was set to 25° C. The sensor chips used were chips prepared by immobilizing Protein L (ACTIGEN or BioVision) onto Series S Sensor Chip CM5 (GE Healthcare Japan Corp.) or Series S Sensor Chip CM4 (GE Healthcare Japan Corp.) by the amine coupling method.
# (§2) In order to calculate the KD value of each altered antibody for FcγR, kinetic analysis was conducted according to the following method: first, the antibody of interest was captured onto any of these chips and allowed to interact with mFcγR diluted with a running buffer. For the obtained sensorgram, the assay results were globally fit into the 1:1 Langmuir binding model using Biacore Evaluation Software to calculate an association rate constant ka (L/mol/s) and a dissociation rate constant kd (1/s). From these values, the dissociation constant KD (mol/L) was calculated.
Kd [nM],relative mFcγRIII-binding activity (mIgG1 = 1),Binder
106,2.7 fold vs H237-mIgG1/MRAL-k0,B1
1120,0.3 fold vs H237-mIgG1/MRAL-k0,B2
1130,0.2 fold vs H237-mIgG1/MRAL-k0,B3
62.3,4.5 fold vs H237-mIgG1/MRAL-k0,B4
740,0.4 fold vs H237-mIgG1/MRAL-k0,B5
1330,0.2 fold vs H237-mIgG1/MRAL-k0,B6
71.7,3.9 fold vs H237-mIgG1/MRAL-k0,B7
2060,0.1 fold vs H237-mIgG1/MRAL-k0,B8
1020,0.3 fold vs H237-mIgG1/MRAL-k0,B9
232,1.2 fold vs H237-mIgG1/MRAL-k0,B10
646,0.4 fold vs H237-mIgG1/MRAL-k0,B11
52.1,5.4 fold vs H237-mIgG1/MRAL-k0,B12
890,0.3 fold vs H237-mIgG1/MRAL-k0,B13

# Biological target: T2, mouse FcγRII extracellular domain, …
# Assay: as above
# Description: as §1, §2
Kd [nM],relative mFcγRII-binding activity (mIgG1 = 1),Binder
1.29,163 fold vs H237-mIgG1/MRAL-k0,B1
14.7,14.3 fold vs H237-mIgG1/MRAL-k0,B2
10,21 fold vs H237-mIgG1/MRAL-k0,B3
1.23,170 fold vs H237-mIgG1/MRAL-k0,B4
8.3,25.3 fold vs H237-mIgG1/MRAL-k0,B5
19.8,10.6 fold vs H237-mIgG1/MRAL-k0,B6
0.589,357 fold vs H237-mIgG1/MRAL-k0,B7
17.9,11.7 fold vs H237-mIgG1/MRAL-k0,B8
14.9,14.1 fold vs H237-mIgG1/MRAL-k0,B9
4.13,50.8 fold vs H237-mIgG1/MRAL-k0,B10
6.21,33.8 fold vs H237-mIgG1/MRAL-k0,B11
1,210 fold vs H237-mIgG1/MRAL-k0,B12
8.25,25.4 fold vs H237-mIgG1/MRAL-k0,B13
